Measured values reported in IntAct's records for PubMed 35512704.

B1: Mothers against decapentaplegic homolog 4 (Homo sapiens), Q13485 (parent)
chain: MDNMSITNTPTSNDACLSIVHSLMCHRQGGESETFAKRAIESLVKKLKEKKDELDSLITAITTNGAHPSKCVTIQRTLDGRLQVAGRKGFPHVIYARLWRWPDLHKNELKHVKYCQYAFDLKCDSVCVNPYHYERVVSPGIDLSGLTLQSNAPSSMMVKDEYVHDFEGQPSLSTEGHSIQTIQHPPSNRASTETYSTPALLAPSESNATSTANFPNIPVASTSQPASILGGSHSEGLLQIASGPQPGQQQNGFTGQPATYHHNSTTTWTGSRTAPYTPNLPHHQNGHLQHHPPMPPHPGHYWPVHNELAFQPPISNHPAPEYWCSIAYFEMDVQVGETFKVPSSCPIVTVDGYVDPSGGDRFCLGQLSNVHRTEAIERARLHIGKGVQLECKGEGDVWVRCLSDHAVFVQSYYLDREAGRAPGDAVHKIYPSAYIKVFDLRQCHRQMQQQAATAQAAAAAQAAAVAGNIPGPGSVGGIAPAISLSAAAGIGVDDLRRLCILRMSFVKGWGPDYPRQSIKETPCWIEIHLHRALQLLDEVLHTMPIADPQPLD

Variants of: B1
Conditions: with tfe2_human TCF3, P15923

effect of a mutation on the interaction	Variant
with no effect	G386D

Variants of: B1
Conditions: with tead1_human TEAD1, P28347

effect of a mutation on the interaction	Variant
with no effect	G386D

Variants of: B1
Conditions: with tead2_human TEAD2, Q15562

effect of a mutation on the interaction	Variant
with no effect	G386D

Variants of: B1
Conditions: with tead3_human TEAD3, Q99594
Sequence of tead3_human TEAD3, Q99594 (Q99594 whole entry): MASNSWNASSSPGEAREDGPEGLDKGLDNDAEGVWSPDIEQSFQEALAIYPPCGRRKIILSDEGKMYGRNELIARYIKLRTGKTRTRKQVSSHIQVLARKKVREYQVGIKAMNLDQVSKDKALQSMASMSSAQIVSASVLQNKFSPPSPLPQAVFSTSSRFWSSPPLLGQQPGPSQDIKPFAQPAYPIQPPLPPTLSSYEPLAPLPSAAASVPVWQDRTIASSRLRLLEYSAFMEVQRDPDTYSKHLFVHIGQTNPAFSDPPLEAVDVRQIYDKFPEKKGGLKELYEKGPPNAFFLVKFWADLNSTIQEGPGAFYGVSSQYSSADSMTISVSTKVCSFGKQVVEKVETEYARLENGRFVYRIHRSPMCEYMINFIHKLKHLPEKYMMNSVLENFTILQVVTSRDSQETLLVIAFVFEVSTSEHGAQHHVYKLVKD

effect of a mutation on the interaction	Variant
with no effect	G386D

Variants of: B1
Conditions: with tet2_human TET2, Q6N021

effect of a mutation on the interaction	Variant
with no effect	G386D

Variants of: B1
Conditions: with tgfr2_human TGFBR2, P37173

effect of a mutation on the interaction	Variant
with no effect	G386D

Variants of: B1
Conditions: with tnr14_human TNFRSF14, Q92956

effect of a mutation on the interaction	Variant
with no effect	G386D

Variants of: B1
Conditions: with tpx2_human TPX2, Q9ULW0

effect of a mutation on the interaction	Variant
with no effect	G386D

Variants of: B1
Conditions: with trrap_human TRRAP

effect of a mutation on the interaction	Variant
with no effect	G386D

Variants of: B1
Conditions: with tsc2_human TSC2, P49815

effect of a mutation on the interaction	Variant
with no effect	G386D

Variants of: B1
Conditions: with tshr_human TSHR

effect of a mutation on the interaction	Variant
with no effect	G386D

Variants of: B1
Conditions: with vhl_human VHL

effect of a mutation on the interaction	Variant
with no effect	G386D

Variants of: B1
Conditions: with wt1_human WT1, P19544

effect of a mutation on the interaction	Variant
with no effect	G386D

Variants of: B1
Conditions: with wwtr1_human WWTR1, Q9GZV5

effect of a mutation on the interaction	Variant
with no effect	G386D

Variants of: B1
Conditions: with xirp2_human XIRP2, A4UGR9
Sequence of xirp2_human XIRP2, A4UGR9 (A4UGR9 whole entry): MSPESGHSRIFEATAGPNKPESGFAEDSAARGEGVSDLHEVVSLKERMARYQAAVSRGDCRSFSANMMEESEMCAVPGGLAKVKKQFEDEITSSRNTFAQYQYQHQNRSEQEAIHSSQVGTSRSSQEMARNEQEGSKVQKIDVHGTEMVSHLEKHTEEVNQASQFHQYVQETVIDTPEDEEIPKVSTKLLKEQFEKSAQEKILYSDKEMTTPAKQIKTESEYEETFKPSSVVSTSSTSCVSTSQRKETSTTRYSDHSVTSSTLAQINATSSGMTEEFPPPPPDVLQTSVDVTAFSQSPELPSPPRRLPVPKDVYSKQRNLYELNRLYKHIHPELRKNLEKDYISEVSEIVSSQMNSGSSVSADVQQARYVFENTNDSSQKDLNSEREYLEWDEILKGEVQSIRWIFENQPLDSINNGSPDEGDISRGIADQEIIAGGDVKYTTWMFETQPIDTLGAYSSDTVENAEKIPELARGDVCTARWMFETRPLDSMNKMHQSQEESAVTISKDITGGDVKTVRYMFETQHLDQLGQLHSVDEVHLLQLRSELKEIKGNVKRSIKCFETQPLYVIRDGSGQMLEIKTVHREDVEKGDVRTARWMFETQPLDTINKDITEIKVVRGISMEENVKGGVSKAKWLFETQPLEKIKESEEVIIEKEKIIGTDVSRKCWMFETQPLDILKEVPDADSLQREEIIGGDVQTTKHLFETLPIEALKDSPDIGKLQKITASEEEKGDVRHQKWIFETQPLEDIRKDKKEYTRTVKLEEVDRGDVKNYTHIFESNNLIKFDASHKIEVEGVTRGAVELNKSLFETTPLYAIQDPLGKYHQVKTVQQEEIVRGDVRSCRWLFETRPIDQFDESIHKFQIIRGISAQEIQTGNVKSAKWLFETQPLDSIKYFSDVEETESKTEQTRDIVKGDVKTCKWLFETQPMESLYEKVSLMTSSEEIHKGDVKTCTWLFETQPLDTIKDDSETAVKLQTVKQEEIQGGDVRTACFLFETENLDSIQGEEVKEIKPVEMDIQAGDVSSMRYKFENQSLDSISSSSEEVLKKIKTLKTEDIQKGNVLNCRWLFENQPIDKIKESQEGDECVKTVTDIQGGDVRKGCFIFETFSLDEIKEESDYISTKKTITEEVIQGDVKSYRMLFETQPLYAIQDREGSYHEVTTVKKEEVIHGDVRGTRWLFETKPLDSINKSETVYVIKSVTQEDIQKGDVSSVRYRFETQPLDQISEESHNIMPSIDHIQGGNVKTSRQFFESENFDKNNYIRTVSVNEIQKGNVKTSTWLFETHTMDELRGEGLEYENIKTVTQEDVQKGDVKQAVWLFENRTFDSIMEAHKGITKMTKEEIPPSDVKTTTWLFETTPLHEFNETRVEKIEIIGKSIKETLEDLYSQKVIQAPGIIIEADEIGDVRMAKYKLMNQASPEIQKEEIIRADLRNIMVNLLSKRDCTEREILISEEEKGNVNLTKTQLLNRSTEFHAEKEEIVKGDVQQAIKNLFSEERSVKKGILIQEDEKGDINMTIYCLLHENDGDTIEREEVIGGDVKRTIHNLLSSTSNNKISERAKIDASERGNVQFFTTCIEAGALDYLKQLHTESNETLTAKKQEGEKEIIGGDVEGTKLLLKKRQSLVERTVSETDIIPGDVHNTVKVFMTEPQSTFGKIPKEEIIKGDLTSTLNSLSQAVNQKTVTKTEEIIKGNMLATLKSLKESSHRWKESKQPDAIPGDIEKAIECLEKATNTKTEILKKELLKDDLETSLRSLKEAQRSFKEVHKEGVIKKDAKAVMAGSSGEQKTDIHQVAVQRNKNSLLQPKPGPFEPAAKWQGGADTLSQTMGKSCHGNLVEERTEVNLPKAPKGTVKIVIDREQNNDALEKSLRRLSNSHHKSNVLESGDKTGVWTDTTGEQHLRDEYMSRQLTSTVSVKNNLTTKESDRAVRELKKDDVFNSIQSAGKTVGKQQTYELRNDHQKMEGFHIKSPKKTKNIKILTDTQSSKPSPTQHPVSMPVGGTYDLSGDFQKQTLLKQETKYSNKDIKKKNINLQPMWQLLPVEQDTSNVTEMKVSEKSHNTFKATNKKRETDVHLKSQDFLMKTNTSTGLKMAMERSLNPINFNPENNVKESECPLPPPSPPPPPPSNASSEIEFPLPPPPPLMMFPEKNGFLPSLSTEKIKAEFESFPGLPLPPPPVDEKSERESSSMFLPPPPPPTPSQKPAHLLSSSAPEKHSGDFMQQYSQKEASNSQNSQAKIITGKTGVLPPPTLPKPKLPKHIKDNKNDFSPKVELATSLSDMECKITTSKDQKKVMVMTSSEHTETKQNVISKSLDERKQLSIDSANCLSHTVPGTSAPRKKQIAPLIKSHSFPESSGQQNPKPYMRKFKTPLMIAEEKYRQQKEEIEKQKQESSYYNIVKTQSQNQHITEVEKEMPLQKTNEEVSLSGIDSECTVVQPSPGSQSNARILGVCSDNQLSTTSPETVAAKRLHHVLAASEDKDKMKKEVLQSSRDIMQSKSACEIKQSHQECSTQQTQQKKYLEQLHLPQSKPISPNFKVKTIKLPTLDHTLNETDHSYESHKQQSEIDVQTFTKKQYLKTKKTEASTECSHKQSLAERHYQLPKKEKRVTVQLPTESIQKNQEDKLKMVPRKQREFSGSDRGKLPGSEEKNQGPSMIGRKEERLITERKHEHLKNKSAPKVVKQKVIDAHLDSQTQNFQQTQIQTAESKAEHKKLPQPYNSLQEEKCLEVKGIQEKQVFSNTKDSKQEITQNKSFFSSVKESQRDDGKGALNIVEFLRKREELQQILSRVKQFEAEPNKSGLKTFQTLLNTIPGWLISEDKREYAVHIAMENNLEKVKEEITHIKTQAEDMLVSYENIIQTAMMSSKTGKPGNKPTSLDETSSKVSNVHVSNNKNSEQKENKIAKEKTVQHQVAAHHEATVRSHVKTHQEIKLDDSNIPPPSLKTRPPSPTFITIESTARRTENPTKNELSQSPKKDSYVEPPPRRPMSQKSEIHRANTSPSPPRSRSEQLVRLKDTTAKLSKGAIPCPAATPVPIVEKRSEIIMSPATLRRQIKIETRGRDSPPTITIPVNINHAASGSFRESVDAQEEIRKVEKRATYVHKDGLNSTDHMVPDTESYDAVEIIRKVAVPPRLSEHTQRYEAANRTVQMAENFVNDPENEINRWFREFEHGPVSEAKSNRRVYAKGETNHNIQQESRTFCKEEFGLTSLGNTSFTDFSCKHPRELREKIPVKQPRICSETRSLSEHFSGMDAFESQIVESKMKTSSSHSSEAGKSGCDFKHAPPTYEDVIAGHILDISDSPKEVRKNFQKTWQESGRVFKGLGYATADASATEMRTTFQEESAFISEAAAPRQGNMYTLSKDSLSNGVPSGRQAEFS

effect of a mutation on the interaction	Variant
with no effect	G386D

Variants of: B1
Conditions: with xpo1_human XPO1, O14980

effect of a mutation on the interaction	Variant
with no effect	G386D

Variants of: B1
Conditions: with 1433e_human YWHAE

effect of a mutation on the interaction	Variant
with no effect	G386D

Variants of: B1
Conditions: with 1433z_human YWHAZ

effect of a mutation on the interaction	Variant
with no effect	G386D

Variants of: B1
Conditions: with arc1a_human ARPC1A

effect of a mutation on the interaction	Variant
increasing interaction strength	G386D

Variants of: B1
Conditions: with axin2_human AXIN2, Q9Y2T1

effect of a mutation on the interaction	Variant
increasing interaction strength	G386D

Variants of: B1
Conditions: with btg1_human BTG1, P62324

effect of a mutation on the interaction	Variant
increasing interaction strength	G386D

Variants of: B1
Conditions: with erbb3_human ERBB3, P21860

effect of a mutation on the interaction	Variant
increasing interaction strength	G386D

Variants of: B1
Conditions: with gna13_human GNA13, Q14344

effect of a mutation on the interaction	Variant
increasing interaction strength	G386D

Variants of: B1
Conditions: with gsk3b_human GSK3B

effect of a mutation on the interaction	Variant
increasing interaction strength	G386D

Variants of: B1
Conditions: with hdac1_human HDAC1, Q13547
Sequence of hdac1_human HDAC1, Q13547 (Q13547 whole entry): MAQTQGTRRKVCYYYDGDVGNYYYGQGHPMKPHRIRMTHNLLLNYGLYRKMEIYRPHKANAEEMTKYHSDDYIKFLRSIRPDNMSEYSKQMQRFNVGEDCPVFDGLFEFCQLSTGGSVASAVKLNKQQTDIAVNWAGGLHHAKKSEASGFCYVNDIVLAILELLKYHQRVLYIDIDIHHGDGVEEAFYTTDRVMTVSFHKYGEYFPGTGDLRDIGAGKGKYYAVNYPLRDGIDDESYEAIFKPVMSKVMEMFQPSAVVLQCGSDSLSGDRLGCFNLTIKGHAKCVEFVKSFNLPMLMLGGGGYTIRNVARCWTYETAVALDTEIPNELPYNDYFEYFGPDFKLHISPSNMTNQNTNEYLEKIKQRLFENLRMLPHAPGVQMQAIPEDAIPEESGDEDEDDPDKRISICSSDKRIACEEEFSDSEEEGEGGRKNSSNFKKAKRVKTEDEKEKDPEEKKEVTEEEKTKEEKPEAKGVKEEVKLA

effect of a mutation on the interaction	Variant
increasing interaction strength	G386D

Variants of: B1
Conditions: with hnf1a_human HNF1A

effect of a mutation on the interaction	Variant
increasing interaction strength	G386D

Variants of: B1
Conditions: with notc2_human NOTCH2, Q04721

effect of a mutation on the interaction	Variant
causing an interaction	G386D

Variants of: B1
Conditions: with ntrk2_human NTRK2, Q16620

effect of a mutation on the interaction	Variant
causing an interaction	G386D

Variants of: B1
Conditions: with dpod1_human POLD1, P28340

effect of a mutation on the interaction	Variant
increasing interaction strength	G386D

Variants of: B1
Conditions: with socs1_human SOCS1, O15524
Sequence of socs1_human SOCS1, O15524 (O15524 whole entry): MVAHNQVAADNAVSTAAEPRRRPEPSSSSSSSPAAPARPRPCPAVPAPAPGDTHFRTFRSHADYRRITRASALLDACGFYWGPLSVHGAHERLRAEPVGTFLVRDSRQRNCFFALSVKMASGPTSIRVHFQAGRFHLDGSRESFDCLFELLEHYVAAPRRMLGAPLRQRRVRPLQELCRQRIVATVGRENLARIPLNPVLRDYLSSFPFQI

effect of a mutation on the interaction	Variant
increasing interaction strength	G386D

Variants of: B1
Conditions: with tshr_human TSHR
Remark: another data set of the same source

effect of a mutation on the interaction	Variant
increasing interaction strength	G386D

Variants of: B1
Conditions: with smad2_human SMAD2, Q15796
Sequence of smad2_human SMAD2, Q15796 (Q15796 whole entry): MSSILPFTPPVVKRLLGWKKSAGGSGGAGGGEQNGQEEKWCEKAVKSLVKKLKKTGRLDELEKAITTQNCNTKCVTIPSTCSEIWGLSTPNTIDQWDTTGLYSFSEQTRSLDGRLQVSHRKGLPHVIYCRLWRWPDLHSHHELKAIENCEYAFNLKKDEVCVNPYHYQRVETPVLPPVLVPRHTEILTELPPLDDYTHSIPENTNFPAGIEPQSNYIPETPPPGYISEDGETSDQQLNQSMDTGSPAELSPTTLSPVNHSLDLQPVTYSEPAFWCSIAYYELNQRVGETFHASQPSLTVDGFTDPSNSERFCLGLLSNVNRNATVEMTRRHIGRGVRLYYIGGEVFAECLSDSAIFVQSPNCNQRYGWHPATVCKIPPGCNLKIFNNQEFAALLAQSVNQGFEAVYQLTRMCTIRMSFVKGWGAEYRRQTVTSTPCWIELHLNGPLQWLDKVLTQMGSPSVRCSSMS

effect of a mutation on the interaction	Variant
disrupting interaction strength	G386D

Variants of: B1
Conditions: with smad3_human SMAD3, P84022

effect of a mutation on the interaction	Variant
decreasing interaction strength	G386D

Variants of: B1
Conditions: with cdk6_human CDK6, Q00534

effect of a mutation on the interaction	Variant
decreasing interaction strength	G386D

Variants of: B1
Conditions: with ccnd1_human CCND1, P24385

effect of a mutation on the interaction	Variant
decreasing interaction strength	G386D

Variants of: B1
Conditions: with akt1_human AKT1, P31749

effect of a mutation on the interaction	Variant
decreasing interaction strength	G386D

Variants of: B1
Conditions: with pk3cb_human PIK3CB

effect of a mutation on the interaction	Variant
decreasing interaction strength	G386D

Variants of: B1
Conditions: with jak1_human JAK1, P23458

effect of a mutation on the interaction	Variant
decreasing interaction strength	G386D

Variants of: B1
Conditions: with jak3_human JAK3, P52333

effect of a mutation on the interaction	Variant
decreasing interaction strength	G386D

Variants of: B1
Conditions: with baba2_human BABAM2, Q9NXR7

effect of a mutation on the interaction	Variant
increasing interaction strength	G386D
